Reference: paper PMC10296094 (Cancers, 2023)
Where no end group is shown, it is not given here.

Target: T1, His6-tagged human centrin1 (human, UniProt Q12798 1-172)
T1 sequence (looked up): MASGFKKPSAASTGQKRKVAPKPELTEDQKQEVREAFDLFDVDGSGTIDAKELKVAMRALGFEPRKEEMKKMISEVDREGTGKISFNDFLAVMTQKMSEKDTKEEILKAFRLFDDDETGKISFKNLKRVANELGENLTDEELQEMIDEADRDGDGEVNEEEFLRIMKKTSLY
Assay: fluorescence polarisation; fluorescence anisotropy; 2-fold dilution series of centrin1, 100 nM Sfi1 peptide; 10 mM HEPES pH 7.4, 100 mM CaCl2, 0.005% v/v Tween 20; 45 min at RT
Settings: both partners purified

B1: fluorescein-labelled Sfi1 peptide (peptide)
peptide: REVAARESQHNRQLLRGALRRWK
modifications: not fully specified (residue 23)
notes: Sfi1 (mitotic spindle regulator), human, residues 670-692; also called F-Sfi1
Kd: 30 ± 12 nM
